pKd: −log10 of the molar value.
Target: His-tagged ferritin-based nanoparticle (FNP): Helicobacter pylori ferritin with N-terminal domain B (S. aureus | Helicobacter pylori)
Experiment: BLI
Conditions: Fc fusion

Q: With “NiV-B-G-Fc: Nipah virus Bangladesh attachment glycoprotein G (residues 176-602) fused with a C-terminal human IgG1 Fc (from UniProt P01857)” as the substance, how does the pKd read?
A: 8.02
